Square brackets hold non-standard residues; d marks the D form. Ends that are not written are not given here. Tyr(3-NO2) = N[C@@H](Cc1ccc(O)c([N+](=O)[O-])c1)C(=O)O; 2Abz = Nc1ccccc1C(=O)O

Format in all cases: biochemical
The target in one experiment is T1, MMP-2 (Homo sapiens, UniProt P08253).
T1 construct: purchased SIGMA PF023
T1 sequence (P08253 110-660): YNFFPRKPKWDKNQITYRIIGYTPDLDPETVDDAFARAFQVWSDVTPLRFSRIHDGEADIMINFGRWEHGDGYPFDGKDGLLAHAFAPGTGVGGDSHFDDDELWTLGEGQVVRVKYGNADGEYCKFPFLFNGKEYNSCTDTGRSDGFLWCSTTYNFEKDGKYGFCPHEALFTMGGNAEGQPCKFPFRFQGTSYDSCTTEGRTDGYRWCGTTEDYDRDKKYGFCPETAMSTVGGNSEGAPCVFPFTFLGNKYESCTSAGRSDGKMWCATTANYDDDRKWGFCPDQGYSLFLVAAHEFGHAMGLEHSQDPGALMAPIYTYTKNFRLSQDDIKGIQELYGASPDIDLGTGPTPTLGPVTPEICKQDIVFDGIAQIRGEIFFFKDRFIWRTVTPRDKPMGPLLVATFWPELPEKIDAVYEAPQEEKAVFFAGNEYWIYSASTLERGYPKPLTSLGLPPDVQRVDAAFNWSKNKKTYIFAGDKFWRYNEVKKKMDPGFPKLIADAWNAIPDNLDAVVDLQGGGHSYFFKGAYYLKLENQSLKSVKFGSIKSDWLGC
Kind of experiment: FRET peptide cleavage efficiency with MMP-2. To be noted: 200 uM linker, 1 ug/ml protease, 37° C., buffer C pH 7.5.

In a further experiment the target is T2, matriptase (Homo sapiens, UniProt Q9Y5Y6).
T2 construct: purchased R&D Systems 3946-SEB
T2 sequence (Q9Y5Y6 615-855 limits assumed): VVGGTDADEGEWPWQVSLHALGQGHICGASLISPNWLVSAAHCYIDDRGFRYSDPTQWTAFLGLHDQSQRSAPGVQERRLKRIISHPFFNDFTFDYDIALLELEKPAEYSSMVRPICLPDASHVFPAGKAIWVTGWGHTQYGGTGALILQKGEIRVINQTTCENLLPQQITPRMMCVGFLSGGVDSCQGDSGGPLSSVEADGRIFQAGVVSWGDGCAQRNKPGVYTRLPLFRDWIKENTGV
Briefly: FRET peptide cleavage efficiency with matriptase. To be noted: 200 uM linker, 1 ug/ml protease, 37° C., buffer B pH 9.0.

For a further experiment, the target named is uPA (Homo sapiens, UniProt P00749). Briefly: FRET peptide cleavage efficiency with uPA. To be noted: 200 uM linker, 1 ug/ml protease, 37° C., buffer A pH 8.5.
In another experiment the target is Kallikrein-3 (Homo sapiens, UniProt P07288). Kind of experiment: FRET peptide cleavage efficiency with Kallikrein-3. To be noted: peptide 200 uM, Kallikrein-3 2 μg/ml, 37° C., pH 8.
Sequence of Kallikrein-3 (P07288 25-261, species assumed): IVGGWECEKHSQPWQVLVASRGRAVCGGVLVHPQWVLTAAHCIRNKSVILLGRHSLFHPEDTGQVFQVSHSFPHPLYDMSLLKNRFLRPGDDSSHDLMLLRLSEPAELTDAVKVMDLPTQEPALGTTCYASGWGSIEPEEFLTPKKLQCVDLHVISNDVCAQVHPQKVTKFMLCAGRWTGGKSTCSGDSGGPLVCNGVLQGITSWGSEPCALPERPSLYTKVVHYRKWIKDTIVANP

With “RRLHYSL ([2Abz]RRLHYSL[Tyr(3-NO2)]-NH2) [LNK073]”, in the experiment with MMP-2, the “% cleavage MMP-2 t = 15 min” value came to 1%, the “% cleavage MMP-2 t = 60 min” value is 4% and the “% cleavage MMP-2 t = 120 min” value stood at 6%. Further, in the experiment with matriptase, the “% cleavage Matriptase t = 15 min” value is on record as 1%, the “% cleavage Matriptase t = 60 min” value is recorded as 3% and the “% cleavage Matriptase t = 120 min” value was determined as 5%. For the same substance, in the experiment with uPA, the “% cleavage uPA t = 15 min” value is reported as 0%, the “% cleavage uPA t = 60 min” value is 0% and the “% cleavage uPA t = 120 min” value was 0%. Further, in the experiment with Kallikrein-3, the “Kallikrein-3 t = 1 h % cleavage” value amounted to 20%, the “Kallikrein-3 t = 3 h % cleavage” value was determined as 51%, the “Kallikrein-3 t = 6 h % cleavage” value came to 79% and the “Kallikrein-3 t = 8 h % cleavage” value is reported as 91%.

With “GSSVYSGR ([2Abz]GSSVYSGR[Tyr(3-NO2)]-NH2) [LNK080]”, in the experiment with MMP-2, the “% cleavage MMP-2 t = 15 min” value worked out at 1%, the “% cleavage MMP-2 t = 60 min” value is 3% and the “% cleavage MMP-2 t = 120 min” value is 5%. Besides, in the experiment with matriptase, the “% cleavage Matriptase t = 15 min” value is given as 2%, the “% cleavage Matriptase t = 60 min” value came out at 6% and the “% cleavage Matriptase t = 120 min” value worked out at 10%. Further, in the experiment with uPA, the “% cleavage uPA t = 15 min” value turned out to be 4%, the “% cleavage uPA t = 60 min” value worked out at 17% and the “% cleavage uPA t = 120 min” value is 28%. In the experiment with Kallikrein-3, the “Kallikrein-3 t = 1 h % cleavage” value is on record as 16%, the “Kallikrein-3 t = 3 h % cleavage” value is on record as 41%, the “Kallikrein-3 t = 6 h % cleavage” value turned out to be 68% and the “Kallikrein-3 t = 8 h % cleavage” value is reported as 79%.

In the case of “KLYSSKQ ([2Abz]KLYSSKQ[Tyr(3-NO2)]-NH2) [LNK071]”, in the experiment with MMP-2, the “% cleavage MMP-2 t = 15 min” value stood at 1%, the “% cleavage MMP-2 t = 60 min” value worked out at 13% and the “% cleavage MMP-2 t = 120 min” value is listed as 28%. In the experiment with matriptase, the “% cleavage Matriptase t = 15 min” value was 0%, the “% cleavage Matriptase t = 60 min” value was found to be 0% and the “% cleavage Matriptase t = 120 min” value is listed as 0%. In the experiment with uPA, the “% cleavage uPA t = 15 min” value came to 0%, the “% cleavage uPA t = 60 min” value turned out to be 0% and the “% cleavage uPA t = 120 min” value amounted to 0%. Besides, in the experiment with Kallikrein-3, the “Kallikrein-3 t = 1 h % cleavage” value amounted to 23%, the “Kallikrein-3 t = 3 h % cleavage” value was 55%, the “Kallikrein-3 t = 6 h % cleavage” value is reported as 83% and the “Kallikrein-3 t = 8 h % cleavage” value was found to be 94%.

As to “KSKQHSL ([2Abz]KSKQHSL[Tyr(3-NO2)]-NH2) [LNK077]”, in the experiment with MMP-2, the “% cleavage MMP-2 t = 15 min” value turned out to be 3%, the “% cleavage MMP-2 t = 60 min” value was 4% and the “% cleavage MMP-2 t = 120 min” value came out at 6%. For the same substance, in the experiment with matriptase, the “% cleavage Matriptase t = 15 min” value is 0%, the “% cleavage Matriptase t = 60 min” value was 0% and the “% cleavage Matriptase t = 120 min” value was 0%. Also, in the experiment with uPA, the “% cleavage uPA t = 15 min” value came out at 0%, the “% cleavage uPA t = 60 min” value is recorded as 0% and the “% cleavage uPA t = 120 min” value is given as 0%. In the experiment with Kallikrein-3, the “Kallikrein-3 t = 1 h % cleavage” value worked out at 9%, the “Kallikrein-3 t = 3 h % cleavage” value is reported as 30%, the “Kallikrein-3 t = 6 h % cleavage” value turned out to be 56% and the “Kallikrein-3 t = 8 h % cleavage” value is reported as 69%.

In the case of “RRLNYSL ([2Abz]RRLNYSL[Tyr(3-NO2)]-NH2) [LNK074]”, in the experiment with MMP-2, the “% cleavage MMP-2 t = 15 min” value stood at 1%, the “% cleavage MMP-2 t = 60 min” value worked out at 5% and the “% cleavage MMP-2 t = 120 min” value is reported as 9%. Besides, in the experiment with matriptase, the “% cleavage Matriptase t = 15 min” value was 2%, the “% cleavage Matriptase t = 60 min” value is listed as 6% and the “% cleavage Matriptase t = 120 min” value came out at 10%. Also, in the experiment with uPA, the “% cleavage uPA t = 15 min” value is reported as 0%, the “% cleavage uPA t = 60 min” value is 0% and the “% cleavage uPA t = 120 min” value is 0%. Moreover, in the experiment with Kallikrein-3, the “Kallikrein-3 t = 1 h % cleavage” value worked out at 23%, the “Kallikrein-3 t = 3 h % cleavage” value is 59%, the “Kallikrein-3 t = 6 h % cleavage” value stood at 87% and the “Kallikrein-3 t = 8 h % cleavage” value is reported as 96%.

“RSSYYSL ([2Abz]RSSYYSL[Tyr(3-NO2)]-NH2) [LNK076]”: in the experiment with MMP-2, the “% cleavage MMP-2 t = 15 min” value is 19%, the “% cleavage MMP-2 t = 60 min” value was 69% and the “% cleavage MMP-2 t = 120 min” value turned out to be 92%. In addition, in the experiment with matriptase, the “% cleavage Matriptase t = 15 min” value came out at 0%, the “% cleavage Matriptase t = 60 min” value was determined as 0% and the “% cleavage Matriptase t = 120 min” value was 0%. Besides, in the experiment with uPA, the “% cleavage uPA t = 15 min” value was 0%, the “% cleavage uPA t = 60 min” value is on record as 0% and the “% cleavage uPA t = 120 min” value was 0%. In the experiment with Kallikrein-3, the “Kallikrein-3 t = 1 h % cleavage” value came out at 0%, the “Kallikrein-3 t = 3 h % cleavage” value came out at 0%, the “Kallikrein-3 t = 6 h % cleavage” value worked out at 0% and the “Kallikrein-3 t = 8 h % cleavage” value was found to be 0%.

As to “GSSYYSGA ([2Abz]GSSYYSGA[Tyr(3-NO2)]-NH2) [LNK079]”, in the experiment with MMP-2, the “% cleavage MMP-2 t = 15 min” value is listed as 10%, the “% cleavage MMP-2 t = 60 min” value is 42% and the “% cleavage MMP-2 t = 120 min” value amounted to 70%. In addition, in the experiment with matriptase, the “% cleavage Matriptase t = 15 min” value is 0%, the “% cleavage Matriptase t = 60 min” value turned out to be 0% and the “% cleavage Matriptase t = 120 min” value was 0%. Besides, in the experiment with uPA, the “% cleavage uPA t = 15 min” value is given as 0%, the “% cleavage uPA t = 60 min” value was found to be 0% and the “% cleavage uPA t = 120 min” value amounted to 0%. In the experiment with Kallikrein-3, the “Kallikrein-3 t = 1 h % cleavage” value worked out at 34%, the “Kallikrein-3 t = 3 h % cleavage” value turned out to be 75%, the “Kallikrein-3 t = 6 h % cleavage” value was determined as 99% and the “Kallikrein-3 t = 8 h % cleavage” value is on record as 100%.

As for “HSSKLQL ([2Abz]HSSKLQL[Tyr(3-NO2)]-NH2) [LNK078]”, in the experiment with MMP-2, the “% cleavage MMP-2 t = 15 min” value is 3%, the “% cleavage MMP-2 t = 60 min” value was determined as 6% and the “% cleavage MMP-2 t = 120 min” value is listed as 8%. Also, in the experiment with matriptase, the “% cleavage Matriptase t = 15 min” value amounted to 0%, the “% cleavage Matriptase t = 60 min” value was 0% and the “% cleavage Matriptase t = 120 min” value was found to be 0%. In the experiment with uPA, the “% cleavage uPA t = 15 min” value came to 0%, the “% cleavage uPA t = 60 min” value is 0% and the “% cleavage uPA t = 120 min” value is given as 0%. Further, in the experiment with Kallikrein-3, the “Kallikrein-3 t = 1 h % cleavage” value stood at 10%, the “Kallikrein-3 t = 3 h % cleavage” value is on record as 34%, the “Kallikrein-3 t = 6 h % cleavage” value is recorded as 64% and the “Kallikrein-3 t = 8 h % cleavage” value was 79%.

On to “SSQYSSPG ([2Abz]SSQYSSPG[Tyr(3-NO2)]-NH2) [LNK069]”, for which, in the experiment with MMP-2, the “% cleavage MMP-2 t = 15 min” value worked out at 1%, the “% cleavage MMP-2 t = 60 min” value turned out to be 6% and the “% cleavage MMP-2 t = 120 min” value is reported as 13%. In addition, in the experiment with matriptase, the “% cleavage Matriptase t = 15 min” value was found to be 0%, the “% cleavage Matriptase t = 60 min” value is 0% and the “% cleavage Matriptase t = 120 min” value was 0%. Moreover, in the experiment with uPA, the “% cleavage uPA t = 15 min” value came out at 0%, the “% cleavage uPA t = 60 min” value turned out to be 0% and the “% cleavage uPA t = 120 min” value is given as 0%. In the experiment with Kallikrein-3, the “Kallikrein-3 t = 1 h % cleavage” value stood at 6%, the “Kallikrein-3 t = 3 h % cleavage” value came out at 16%, the “Kallikrein-3 t = 6 h % cleavage” value was found to be 31% and the “Kallikrein-3 t = 8 h % cleavage” value is 40%.

Source of the values: US20240400614A1, “CLEAVABLE PEPTIDES AND METHODS OF USE THEREOF” (Bright Peak Therapeutics AG, priority 2023, published 2024).
